Measurements reported in doi:10.1101/2022.12.22.521671 (bioRxiv, 2022).

T1: biotinylated IQN22 (HIV-1 HXB2 gp41 565-586 fused to …, chimera, not fully specified; biotin (position not given))
T1 chain: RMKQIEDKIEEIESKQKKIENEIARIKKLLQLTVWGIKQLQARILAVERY

T2: biotinylated IQN17 (HIV-1 HXB2 gp41 565-581 fused to …, chimera, not fully specified; biotin (position not given))
T2 chain: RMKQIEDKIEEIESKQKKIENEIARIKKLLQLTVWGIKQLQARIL

B1: D5 Fab (Fab, V domains shown)
VH: QVQLVQSGAEVRKPGASVKVSCKASGDTFSSYAISWVRQAPGQGLEWMGGIIPIFGTANYAQAFQGRVTITANESTSTAYMELSSLRSEDTAIYYCARDNPTLLGSDYWGAGTLVTVSS
VL: DIQMTQSPSTLSASIGDRVTITCRASEGIYHWLAWYQQKPGKAPKLLIYKASSLASGAPSRFSGSGSGTDFTLTISSLQPDDFATYYCQQYSNYPLTFGGGTKLEIK

Columns and labels:
Assay in all cases: BLI
[1] = biological target: biotinylated IQN22 (HIV-1 HXB2) (UniProt P04578)
[2] = biological target: biotinylated IQN17 (HIV-1 HXB2) (UniProt P04578)
[3] = biological target: T1, biotinylated IQN22
[4] = biological target: T2, biotinylated IQN17

| Molecule | Kd [1] [nM] | Kd [2] [nM] | Kd [3] [nM] | Kd [4] [nM] |
| --- | --- | --- | --- | --- |
| PIE12 (peptide) | 2 | 3 | – | – |
| B1 | – | – | 5 | 14 |
